The values below come from patent CN110028578A.

The target of assay [1] is A/Guangdong/17SF003/2016 H7N9 HA extracellular domain 11-505 (H3 numbering) with C-terminal T4 trime (Influenza A virus A/Guangdong/17SF003/2016 H7N9). Kind of assay: BLI, biotinylated HA on streptavidin probe, antibody in solution.
Assay [2] addresses A/Shanghai/2/2013 H7N9 HA extracellular domain 11-505 (H3 numbering) with C-terminal T4 trimerisatio (Influenza A virus A/Shanghai/2/2013 H7N9). The assay is described as above.

B1: P52E03 IgG (antibody, V domains shown)
VH: QVQLVQSGGGLVQPGRSLRLSCAASGFTFDDYAMHWVRQAPGKGLEWVSGISWNSGSIGYADSVKGRFTISRDNAKNSLYLQMNSLRAEDTALYYCAKGLNSSGWYVYFDYWGQGTLVTVSS
VL: EIVLTQSPGTLSLSPGERATLSCRASQTVARNYLAWYQQKPGQAPRLLMYDPSSRPAGIPDRFSGSGSGTDFTLTISRLEPEDSAVYFCQQYGSPPLTFGGGTKIEIKR
As a reminder, the Kd is a measure of binding affinity in units of concentration. The low end stands for tighter binding, the high end for weaker binding. On to B1, for which the Kd is 10.5 nM in assay [1] and 157 nM in assay [2].
